Measurements taken from the supplement of paper PMC10065799, “High-throughput profiling of sequence recognition by tyrosine kinases and SH2 domains using bacterial peptide display” (eLife, 2023).
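Further: peptide library displayed on the E. coli surface as eCPX fusions, selected cells deep-sequenced, score is each peptide's frequency after selection divided by its frequency in the input.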

These sequences were tested against SHP2-C SH2 (assay: SH2 binding enrichment of the phosphorylated peptide, bacterial display (enrichment ratio); higher = better substrate or ligand; peptides without Tyr show the background).
SRGLAYPARPA [LEMD2_Y122] was tested, and the SH2 binding enrichment was 0.606.
In the case of LMIKEYLTKEL [BAG3_Y457_E455K], the SH2 binding enrichment is reported as 1.
HSGIYYKPESL [L2HGDH_Y103] gave an SH2 binding enrichment of 0.563.
Sequence ELTSVYDSRAR [SENP1_Y349] has an SH2 binding enrichment of 0.395.
Work on CEDGNYSPEIS [PTDSS1_Y424_T423N] yielded an SH2 binding enrichment of 0.761.
Sequence YVPSFYHAFSG [ACTN4_Y265_S262P] has an SH2 binding enrichment of 0.673.
QRCFVYFFSFL [PTEN_Y176_R173C_YF] showed an SH2 binding enrichment of 1.27.
In the case of KKHIPYSEHKS [CSNK1G2_Y206_R207S], the SH2 binding enrichment is reported as 1.41.
Work on QISRDYGVLLE [PRDX3_Y172] yielded an SH2 binding enrichment of 0.683.
SAEKAYHEQFS [TUBA1A_Y282_L286F] showed an SH2 binding enrichment of 0.565.
TIAIRYSHSRR [ACOXL_Y260] gave an SH2 binding enrichment of 0.44.
SLDLSYYTTSS [EMD_Y181_P183T] showed an SH2 binding enrichment of 0.851.
With GTYEDYVEGLR [MYL6_Y89] the SH2 binding enrichment was 0.645.
With VFLARYGPAWR [CYP2D6_Y124] the SH2 binding enrichment was 0.703.
Sequence KKYPDYIQIAR [SGMS2_Y59_M64R] has an SH2 binding enrichment of 0.808.
IYHLSYHHNCE [PDE6B_Y227_L228H] showed an SH2 binding enrichment of 1.19.
VAVVDYVEPSP [TXNRD2_Y70] showed an SH2 binding enrichment of 0.696.
HPYNSYTYPRL [PAK5_Y316_S312P] gave an SH2 binding enrichment of 0.677.
For EKQARYEIVEE [CDH5_Y223_V227E], the SH2 binding enrichment was 0.921.
RASGIYFVPKG [APBB1IP_Y340_YF] showed an SH2 binding enrichment of 1.11.
For YRVAGYKTQGG [TIA1_Y383_E384K], the SH2 binding enrichment was 0.553.
ALEKTYNTYRS [B4GALNT2_Y538] was tested, and the SH2 binding enrichment was 0.612.
For GKTQQYDCKWY [BCR_Y751], the SH2 binding enrichment was 0.601.
GLCSYYETSKM [MAGED2_Y449_R446C] was tested, and the SH2 binding enrichment was 0.72.
ILGRFYERGSI [PAX5_Y73_T75R_YF] was tested, and the SH2 binding enrichment was 1.16.
With GIADDYDKKKL [EIF1_Y54] the SH2 binding enrichment was 0.496.
Sequence HQEPVYSVAFS [TBL1X_Y509] has an SH2 binding enrichment of 0.856.
With VTRLRYPVCFG [ITK_Y336] the SH2 binding enrichment was 1.01.
Work on QRIHNYYEHRY [HCN4_Y554_D553N] yielded an SH2 binding enrichment of 2.06.

The sequences below were run against Grb2 SH2 (UniProt P62993) in the same assay as above.
Sequence of Grb2 SH2 (P62993 whole entry, looked up): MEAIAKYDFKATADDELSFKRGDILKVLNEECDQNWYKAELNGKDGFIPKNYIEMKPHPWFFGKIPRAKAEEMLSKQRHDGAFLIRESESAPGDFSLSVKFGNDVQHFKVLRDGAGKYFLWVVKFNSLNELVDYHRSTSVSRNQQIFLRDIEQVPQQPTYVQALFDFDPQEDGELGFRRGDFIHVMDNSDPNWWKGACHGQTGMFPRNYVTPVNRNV
SRGLAYPARPA [LEMD2_Y122] was tested, and the SH2 binding enrichment was 0.825.
LMIKEYLTKEL [BAG3_Y457_E455K] gave an SH2 binding enrichment of 1.03.
HSGIYYKPESL [L2HGDH_Y103] was tested, and the SH2 binding enrichment was 0.925.
Work on ELTSVYDSRAR [SENP1_Y349] yielded an SH2 binding enrichment of 0.761.
CEDGNYSPEIS [PTDSS1_Y424_T423N] showed an SH2 binding enrichment of 1.01.
For YVPSFYHAFSG [ACTN4_Y265_S262P], the SH2 binding enrichment was 1.2.
In the case of QRCFVYFFSFL [PTEN_Y176_R173C_YF], the SH2 binding enrichment is reported as 2.
Sequence KKHIPYSEHKS [CSNK1G2_Y206_R207S] has an SH2 binding enrichment of 1.62.
QISRDYGVLLE [PRDX3_Y172] showed an SH2 binding enrichment of 0.845.
For SAEKAYHEQFS [TUBA1A_Y282_L286F], the SH2 binding enrichment was 0.983.
With TIAIRYSHSRR [ACOXL_Y260] the SH2 binding enrichment was 0.608.
In the case of SLDLSYYTTSS [EMD_Y181_P183T], the SH2 binding enrichment is reported as 0.955.
GTYEDYVEGLR [MYL6_Y89] gave an SH2 binding enrichment of 0.777.
VFLARYGPAWR [CYP2D6_Y124] gave an SH2 binding enrichment of 0.948.
With KKYPDYIQIAR [SGMS2_Y59_M64R] the SH2 binding enrichment was 1.23.
Work on IYHLSYHHNCE [PDE6B_Y227_L228H] yielded an SH2 binding enrichment of 1.09.
VAVVDYVEPSP [TXNRD2_Y70] gave an SH2 binding enrichment of 0.792.
Work on HPYNSYTYPRL [PAK5_Y316_S312P] yielded an SH2 binding enrichment of 0.813.
With EKQARYEIVEE [CDH5_Y223_V227E] the SH2 binding enrichment was 0.897.
In the case of RASGIYFVPKG [APBB1IP_Y340_YF], the SH2 binding enrichment is reported as 1.12.
In the case of YRVAGYKTQGG [TIA1_Y383_E384K], the SH2 binding enrichment is reported as 0.68.
Work on ALEKTYNTYRS [B4GALNT2_Y538] yielded an SH2 binding enrichment of 0.819.
Sequence GKTQQYDCKWY [BCR_Y751] has an SH2 binding enrichment of 0.805.
GLCSYYETSKM [MAGED2_Y449_R446C] showed an SH2 binding enrichment of 0.818.
For ILGRFYERGSI [PAX5_Y73_T75R_YF], the SH2 binding enrichment was 0.71.
Work on GIADDYDKKKL [EIF1_Y54] yielded an SH2 binding enrichment of 0.931.
With HQEPVYSVAFS [TBL1X_Y509] the SH2 binding enrichment was 1.08.
VTRLRYPVCFG [ITK_Y336] showed an SH2 binding enrichment of 1.05.
QRIHNYYEHRY [HCN4_Y554_D553N] was tested, and the SH2 binding enrichment was 1.71.
